Measured values reported in US7422849B1, “Method for determining expression of a PI3 kinase gene” (Ludwig Institute for Cancer Research, priority 1992, dated 2008).
Read-outs that look alike come from different tables or passages of the source.

Key:
[1] = target: T1, p85α (Bos taurus, UniProt P23727); assay: Binding of baculovirus expressed p85α to peptide columns; set-up: made in house; host or cells: Sf9 insect cells (baculovirus pAcC4-p85α); species or system bovine
Method: (§1) Proteins were diluted in binding buffer (50 mM phosphate buffer (pH 7.2), 150 mM NaCl, 0.02% Triton X-100, 2 mM EDTA and 200 μM sodium orthovanadate), mixed with the appropriate peptide affinity resin and then allowed to bind for 2 h at 4° C. with rotation. The column material was washed repeatedly (>6×) with 50 column volumes of the same buffer and then with various elution buffers containing NaCl, urea or detergents. Bound proteins were either assayed for PI3-kinase activity or were removed from the column by boiling in SDS-PAGE sample buffer and then analysed by SDS-PAGE.
Baculovirus expressed bovine p85α and p85β were chosen to test these columns (Otsu et al, 1991).

[2] = target: T2, bovine brain PI3-kinase (Bos taurus, UniProt P23727); assay: Binding of partially purified bovine brain PI3-kinase to peptide affinity columns
T2 construct: P13-kinase purified from bovine brain is a complex of p85α and p10; from tissue; host or cells: bovine brain
T2 sequence (P23727 whole entry): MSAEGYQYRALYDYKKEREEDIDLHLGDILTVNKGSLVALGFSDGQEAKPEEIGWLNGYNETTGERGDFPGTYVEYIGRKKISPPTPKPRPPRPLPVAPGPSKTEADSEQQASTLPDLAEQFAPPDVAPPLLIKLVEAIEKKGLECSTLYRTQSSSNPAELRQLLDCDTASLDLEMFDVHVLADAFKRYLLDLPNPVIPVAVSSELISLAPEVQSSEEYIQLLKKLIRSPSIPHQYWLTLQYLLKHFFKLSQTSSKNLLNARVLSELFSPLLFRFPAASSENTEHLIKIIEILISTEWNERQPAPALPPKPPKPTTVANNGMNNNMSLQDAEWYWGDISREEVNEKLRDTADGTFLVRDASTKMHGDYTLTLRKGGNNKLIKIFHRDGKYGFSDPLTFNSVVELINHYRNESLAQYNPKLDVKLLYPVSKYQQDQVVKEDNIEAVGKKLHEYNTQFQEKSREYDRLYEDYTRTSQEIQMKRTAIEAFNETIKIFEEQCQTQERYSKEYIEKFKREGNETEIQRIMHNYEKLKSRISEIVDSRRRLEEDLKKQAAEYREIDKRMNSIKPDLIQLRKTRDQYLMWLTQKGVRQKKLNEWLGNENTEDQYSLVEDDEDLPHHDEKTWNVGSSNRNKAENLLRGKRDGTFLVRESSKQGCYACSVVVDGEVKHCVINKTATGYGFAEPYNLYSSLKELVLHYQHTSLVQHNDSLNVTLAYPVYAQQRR
T2 sequence (P32871 whole entry partner): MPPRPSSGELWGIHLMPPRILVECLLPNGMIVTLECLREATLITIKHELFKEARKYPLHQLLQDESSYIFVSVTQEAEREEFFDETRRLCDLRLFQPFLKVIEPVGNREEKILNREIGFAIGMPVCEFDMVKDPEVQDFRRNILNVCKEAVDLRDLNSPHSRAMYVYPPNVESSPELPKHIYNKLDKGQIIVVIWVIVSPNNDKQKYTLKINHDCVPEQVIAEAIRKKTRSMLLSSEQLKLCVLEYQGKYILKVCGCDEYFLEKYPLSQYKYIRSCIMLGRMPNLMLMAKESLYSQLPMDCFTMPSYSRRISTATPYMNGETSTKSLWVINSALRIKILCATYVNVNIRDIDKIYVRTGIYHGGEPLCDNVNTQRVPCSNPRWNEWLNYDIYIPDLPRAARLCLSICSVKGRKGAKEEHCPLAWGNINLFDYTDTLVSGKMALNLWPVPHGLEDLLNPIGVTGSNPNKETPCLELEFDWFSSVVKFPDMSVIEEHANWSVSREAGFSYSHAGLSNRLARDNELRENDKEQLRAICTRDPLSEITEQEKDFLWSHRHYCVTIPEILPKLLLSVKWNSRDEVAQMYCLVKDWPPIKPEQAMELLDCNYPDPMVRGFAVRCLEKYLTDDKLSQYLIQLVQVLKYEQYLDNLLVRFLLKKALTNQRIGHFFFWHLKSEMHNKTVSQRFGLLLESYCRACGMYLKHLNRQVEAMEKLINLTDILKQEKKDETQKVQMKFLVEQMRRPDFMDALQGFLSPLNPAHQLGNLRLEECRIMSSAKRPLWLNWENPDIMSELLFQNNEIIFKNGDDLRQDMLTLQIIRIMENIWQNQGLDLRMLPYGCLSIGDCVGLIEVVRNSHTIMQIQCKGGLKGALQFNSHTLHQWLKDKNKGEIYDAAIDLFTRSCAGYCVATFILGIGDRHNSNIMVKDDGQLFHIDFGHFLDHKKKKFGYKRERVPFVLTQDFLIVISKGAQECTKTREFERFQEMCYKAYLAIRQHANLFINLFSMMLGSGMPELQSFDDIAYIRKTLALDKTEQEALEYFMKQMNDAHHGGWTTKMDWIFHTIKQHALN
Method: as §1

[3] = target: T3, CSF-1 receptor (Homo sapiens, UniProt P07333); assay: In vitro association of PI3-kinase activity with the CSF-1 receptor; format: binding; settings: Sf9 cell lysates, receptor phosphorylated with ATP before incubation
T3 construct: made in house; host or cells: Sf9 insect cells (baculovirus)
T3 sequence (P07333 20-972): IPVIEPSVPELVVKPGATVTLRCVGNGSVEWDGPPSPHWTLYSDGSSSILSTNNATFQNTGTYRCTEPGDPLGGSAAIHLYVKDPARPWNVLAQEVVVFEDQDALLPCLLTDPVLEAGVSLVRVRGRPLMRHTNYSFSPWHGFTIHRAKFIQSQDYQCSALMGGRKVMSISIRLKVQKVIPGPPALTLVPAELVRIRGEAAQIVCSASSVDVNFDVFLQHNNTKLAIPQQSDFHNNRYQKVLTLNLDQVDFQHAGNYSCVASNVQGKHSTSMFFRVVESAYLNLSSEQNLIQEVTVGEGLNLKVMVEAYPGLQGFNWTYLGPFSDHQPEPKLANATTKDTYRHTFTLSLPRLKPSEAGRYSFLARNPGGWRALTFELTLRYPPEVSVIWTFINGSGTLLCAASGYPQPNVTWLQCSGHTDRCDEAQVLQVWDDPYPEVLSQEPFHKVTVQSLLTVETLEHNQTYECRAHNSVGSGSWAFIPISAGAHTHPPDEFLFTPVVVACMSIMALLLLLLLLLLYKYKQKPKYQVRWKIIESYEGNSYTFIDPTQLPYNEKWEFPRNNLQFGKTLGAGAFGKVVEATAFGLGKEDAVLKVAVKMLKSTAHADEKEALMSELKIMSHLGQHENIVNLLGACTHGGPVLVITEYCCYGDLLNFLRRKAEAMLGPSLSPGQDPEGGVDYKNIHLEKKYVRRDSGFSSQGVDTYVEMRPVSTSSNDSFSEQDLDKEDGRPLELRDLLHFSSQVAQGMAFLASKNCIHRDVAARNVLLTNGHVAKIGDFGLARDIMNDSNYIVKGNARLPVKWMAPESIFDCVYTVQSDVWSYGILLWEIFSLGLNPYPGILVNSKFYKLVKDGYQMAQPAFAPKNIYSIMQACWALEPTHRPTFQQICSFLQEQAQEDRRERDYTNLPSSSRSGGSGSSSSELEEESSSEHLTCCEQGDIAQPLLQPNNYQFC
Method: This assay was performed essentially as described by Kazlauskas and Cooper (1990). Sf9 cells were infected as already described and lysed 48 h post-infection in EB lysis buffer. CSF-1 receptor was immunoprecipitated from Sf9 cells and collected on Protein A-Sepharose beads. The immunocomplex was then subjected to extensive washing (3 times with EB lysis buffer, twice with kinase buffer; 50 mM HEPES (pH 7.4), 150 mM NaCl, 0.02% Triton X-100, 12 mM MgCl2, 2 mM MnCl2, 10% glycerol, 500 μM sodium orthovanadate) and the receptor phosphorylated for 15 min at 20° C. with ATP. The precipitates were then washed again to remove free ATP and incubated for 2 h at 4° C. with cell lysates prepared from Sf9 cells infected with viruses expressing (i) p85α, (ii) p110 or (iii) co-infected with viruses expressing p85α and p110. The immune complexes were washed and assayed for associated PI3-kinase activity.

[4] = PI3-kinase assay on immunoprecipitates from baculovirus infected Sf9 cells; format: biochemical; settings: expressed in Sf9 cells
Method: (§2) The assay for PI3-kinase activity was carried out as described by Whitman et al. (1985).
To clone the p110 coding region into the baculovirus transfer vector p36C (Page, 1989) a Sau 3A1 site (GGATCA) present 10 nucleotides upstream from the initiation codon (see FIG. 9) was changed to a BamHI (GGATCC site by PCR mediated mutagenesis. Briefly, a sense oligonucleotide substituting C for A at position 6 of the Sau3A1 site was used in a PCR reaction with an antisense primer comprising nucleotides (102-124) of the p110 sequence. (see FIG. 9) using Vent polymerase (New England Biolabs). Template DNA was random-primed first strand cDNA prepared from SGBAF-1 cell mRNA as described above; PCR conditions: 94° C. 1 min, 50° C. 1 min, 72° C. 2 min, 35 cycles. The PCR product was digested with BamHl-EcoNl and a 118 bp fragment isolated from a low melting point agarose gel. […] The BamHl-EcoNl fragment of p110/(BamHl) was sequenced and found to agree with that previously determined. […] Cells were harvested and lysed 2 days post-infection in EB lysis buffer (20 mM Tris-HCl (pH 7.4), 50 mM NaCl, 50 mM NaF, 1% NP40, 1 mM EDTA, 500 μM sodium orthovanadate, 2 mM PMSF, 100 Kallikrein inhibitor units of Aprotinin ml^−1) (Kazlauskas and Cooper, 1989) and lysates were analysed by […].

[5] = PI3-kinase assay on immunoprecipitates from transfected COS-1 cells; format: biochemical; settings: anti-p110 antiserum
Method: as §2
For transient expression of p85α in COS-1 cells the coding region for p85α was cloned into the adenovirus late promoter based expression vector pMT2 (Kaufman et al, 1989) as previously described (Otsu et al, 1991). For expression of the p110 cDNA plasmid pSG5-p110 was constructed as follows. The 3.4 kb BamHl-HindIII fragment from cDNA p2.1 was ligated into pSG5 (Stratagene) cut with BamHl and BglII, the HindIII and BglII overhangs of p2.1 and pSG5 respectively, being filled in with Klenow polymerase. This gave construct pSG5.2. Plasmid pBS/race (above) was digested with EcoRl and Hindlll, the 350 bp band gel purified by electroelution (Maniatis et al, 1982) and further digested with Sau3Al and Bsml. This mixture was then added to the gel purified Bsml-BstMl fragment from p2.1 and ligated in a three fragment ligation to pSG5.2 digested with BamHl and BstXl. […] Lysates were analysed by immunoprecipitation with anti-p85α polyclonal antiserum or with anti-p110 C-terminal peptide antiserum. Immunocomplexes collected on Protein A-Sepharose beads were analysed either on 10% SDS-PAGE gels followed by autoradiography or subjected to in vitro PI3-kinase assays as described.

[6] = target: Y751 phosphopeptide; assay: phosphopeptide affinity resin, single incubation; PI3-kinase assay
[7] = target: T1, p85α; assay: Retention of p85α by GST-p110 fragments on glutathione sepharose column; format: binding; set-up: made in house; host or cells: baculovirus / insect cells; settings: GST fusion protein expressed in bacteria
From the text: (§3) The interation of the p85 and p110 subunits of PI3-kinase are thought to be required for the activity of the kinase in mammalian cells. Thus inhibiting the interaction between the subunits could provide a means of inhibiting the activity of this signal transduction pathway. In order to design reagents to p110 which will block the interaction, it is useful to define the region of […] which binds to the p85 subunits. To do this a series of mutants were constructed which express various domains of the […] protein (FIG. 23B). These fragments were expressed as GST fusion proteins in bacteria. The proteins were then bound to a glutathione sepharose column (Pharmicia) according to the manufacturer's instructions (Panayotou G et al (1992) Embo J 11:4261-4272). The ability of these protein fragments to bind the p85 subunits was assessed by the ability of the column specifically to retain p85 subunits purified from baculovirus (Otsu et al (1991) Cell 65:91-104). […] To further characterise the binding domain, deletion mutants and PCR fragments were made from the p110-N fragment as shown in FIG. 24. […] Removal of a further 20 amino acids from either the amino or carboxy termini led to loss of binding activity. Now that this domain has been identified it allows the design of specific peptides, antibodies or small molecules which can inhibit the interaction between the subunits.

[8] = target: T4, p85β (Bos taurus, UniProt P23726); assay: Retention of p85β by GST-p110 fragments on glutathione sepharose column; format: binding; settings: GST fusion protein expressed in bacteria
T4 construct: made in house; host or cells: baculovirus / insect cells
T4 sequence (P23726 whole entry, the tested form may be a part): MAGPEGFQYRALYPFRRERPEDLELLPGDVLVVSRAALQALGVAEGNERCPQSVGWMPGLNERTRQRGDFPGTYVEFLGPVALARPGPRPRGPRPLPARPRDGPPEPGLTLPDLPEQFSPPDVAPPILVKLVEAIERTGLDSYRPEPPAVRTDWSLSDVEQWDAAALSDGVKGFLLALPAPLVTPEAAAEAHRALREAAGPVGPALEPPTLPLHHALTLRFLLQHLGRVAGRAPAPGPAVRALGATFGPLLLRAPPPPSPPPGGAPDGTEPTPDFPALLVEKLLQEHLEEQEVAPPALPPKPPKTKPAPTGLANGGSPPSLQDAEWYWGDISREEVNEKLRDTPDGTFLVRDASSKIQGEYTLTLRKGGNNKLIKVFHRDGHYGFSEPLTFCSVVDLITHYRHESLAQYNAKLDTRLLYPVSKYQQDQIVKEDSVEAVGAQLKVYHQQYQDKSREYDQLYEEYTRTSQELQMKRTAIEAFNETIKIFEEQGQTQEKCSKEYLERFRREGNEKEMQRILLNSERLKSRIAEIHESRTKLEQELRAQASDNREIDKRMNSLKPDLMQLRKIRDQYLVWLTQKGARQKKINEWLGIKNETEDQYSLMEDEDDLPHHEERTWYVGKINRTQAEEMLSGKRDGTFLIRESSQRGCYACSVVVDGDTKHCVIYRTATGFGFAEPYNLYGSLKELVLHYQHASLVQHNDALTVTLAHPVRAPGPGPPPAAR
From the text: as §3

[9] = target: T5, bovine p85α (bovine, UniProt P23727 1-724); assay: deletion mutants and PCR fragments of p110-N; retention of p85
T5 construct: Expressed by baculovirus in Sf9 cells or from pMT2-p85α in COS-1 cells, or native from bovine brain; which one is said under assay; also called 85 kD subunit; baculovirus expressed p85α
T5 sequence (P23727 whole entry, the tested form may be a part): as the sequence (P23727 whole entry) above
From the text: as §3

[10] = target: T6, bovine p85β (bovine, UniProt P23726 1-724); assay: as above
T6 construct: Expressed by baculovirus in Sf9 cells or in COS-1 cells; also called baculovirus expressed p85β
T6 sequence (P23726 whole entry): as the sequence (P23726 whole entry, the tested form may be a part) above
From the text: as §3

T1 sequence (P23727 whole entry): as the sequence (P23727 whole entry) above

In the case of “A R D I M R D S N Y I S K G S T F (ARDIMRDSNYISKGSTF) [Peptide Y587, 17 amino acid phosphopeptide around the second major tyrosine phosphorylation site in the PDGF β-receptor]”, the “binding of baculovirus expressed p85α to the peptide column” value ([1]; Sf9 cell lysate, SDS-PAGE of bound proteins) is reported as “bind both columns to a similar extent”.

For “D M S K D E S V D Y V P M L D M K [Y751 phosphopeptide]”, the “binding of baculovirus expressed p85α to the peptide column” value [1] was “bind both columns to a similar extent” and the “PI3-kinase activity removed from Mono Q peaks 1 or peak 2 by the column” value [2] was over 90%.

With “p85α: 85 kD subunit of PI3-kinase, baculovirus expressed” the “association of PI3-kinase activity with CSF-1 receptor” value [3] was “No PI3-kinase activity associates” and the “PI3-kinase activity of immunoprecipitates” value [4] was “inactive”.

In the case of “p110: bovine PI3-kinase 110 kD subunit, 1068 amino acids, calculated molecular mass 124,247”, the “association of PI3-kinase activity with CSF-1 receptor” value [3] is reported as “No PI3-kinase activity associates”, the “PI3-kinase activity of anti-p110 immunoprecipitates” value [5] is reported as “no activity above that present in control immunoprecipitates” and the “PI3-kinase activity of immunoprecipitates” value [4] is reported as “significant levels of PI3-kinase activity”.

Molecule “partially purified bovine brain PI3-kinase (p85α/p110 complex) (from UniProt P23727 2-724; P32871 1-1068) (enzyme)” has a PI3-kinase activity removed by the column [6] of over 90%.

B1: p110-N: GST fusion of human p110 fragment αα1-128 (protein)
chain: MPPRPSSGELWGIHLMPPRILVECLLPNGMIVTLECLREATLITIKHELFKEARKYPLHQLLQDESSYIFVSVTQEAEREEFFDETRRLCDLRLFQPFLKVIEPVGNREEKILNREIGFAIGMPVCEF
modifications: left off: a dimerising Fc or GST
For B1, the “ability of p110 fragment to bind p85α subunit” value [7] was “capable of binding” and the “ability of p110 fragment to bind p85β subunit” value [8] was “capable of binding”.

B2: amino acids 19-110 of human p10: domain of human p110, amino acids 19-110, from deletion mutants of p110-N (protein, UniProt P42336 19-110, looked up, fragment)
chain: RILVECLLPNGMIVTLECLREATLITIKHELFKEARKYPLHQLLQDESSYIFVSVTQEAEREEFFDETRRLCDLRLFQPFLKVIEPVGNREE
In the case of B2, the “ability of p110 fragment to bind p85α subunit” value [7] is reported as “sufficient to associate with the p85 subunits” and the “ability of p110 fragment to bind p85β subunit” value [8] is reported as “sufficient to associate with the p85 subunits”.

B3: human p110 19-110 with a further 20 amino acids removed from the carboxy terminus (other)
chain: RILVECLLPNGMIVTLECLREATLITIKHELFKEARKYPLHQLLQDESSYIFVSVTQEAEREEFFDETRRLC
notes: Limits 19-90 are calculated from 'Removal of a further 20 amino acids'
B3: no binding [9]; no binding [10].

B4: human p110 19-110 with a further 20 amino acids removed from the amino terminus (other)
chain: EATLITIKHELFKEARKYPLHQLLQDESSYIFVSVTQEAEREEFFDETRRLCDLRLFQPFLKVIEPVGNREE
notes: Limits 39-110 are calculated from 'Removal of a further 20 amino acids'
B4: no binding [9]; no binding [10].
